In assay [1] the target is SARS-CoV-2 spike trimer (S trimer), soluble ectodomain (SARS-CoV-2) (UniProt P0DTC2). As to the kind of experiment: cryo-EM structure.
The target of assay [2] is SARS-CoV-2 spike trimer (S trimer), soluble ectodomain (SARS-CoV-2, Wuhan-Hu-1 type). As to the kind of experiment: cryo-EM structure.

For the substance 2-43 Fab, the stoichiometry N (Fab per trimer) in assay [1] is 3.
4-8 Fab: in assay [2], the stoichiometry N (Fab per trimer) is 3.

These data come from publication doi:10.1101/2020.06.17.153486.
